Measured values taken from US20210309739A1 (CISCIO BIOASSAYS, published 2021).
Positions count from the first letter of the chain named. Like-named read-outs stand apart in the source and are kept apart here.

B1: VH F9 (VHH)
VHH: EVQLVESGGGLVQPGGSLRLSCAASGFTFDDYAMNWVRQAAGKGPEWVASISSRGITTDYAHSVKGRFTVSRDNTKNTLYLQMNSLKPDDAAVYYCATDPSTWYRGTAHWGQGTQVTVSS
modifications: labeled with the acceptor fluorescent probe d2 (site not stated)
notes: Made in E. coli; also called anti-Galphai VH antibody-d2
B2: VH G6 (VHH)
VHH: B1 VHH with G10D, D30S, D31T, A33R, A41P, P45L, S63P
modifications: labeled with the acceptor fluorescent probe d2 (site not stated)
notes: as for B1
B3: VH A10 (VHH)
VHH: EVQLVESGGGLVQPGGSLRLSCAASGLTYSDYAMSWVRQAAGKGPEWVASISSRGITTDYAHSVKGRFTVSRDNTKNTLYLQMNSLEPEDTAVYYCTTVSYWRYEYWGQGTQVTVSS
modifications: labeled with the acceptor fluorescent probe d2 (site not stated)
notes: as for B1
B4: VH G7 (VHH)
VHH: QVQLQESGGGLVQPGGSLRLSCAASGFTFSWYGMSWVRQAPGKGPEWVASISSRGITTDYAHSVKGRFTVSRDNTKNTLYLQMNSLKPEDTGVYYCTRVLWYDSGAYSLNDFWGQGTQVTVSS
modifications: labeled with the acceptor fluorescent probe d2 (site not stated)
notes: as for B1
B5: VH F2 (VHH)
VHH: EVQLVESGGGLVQPGGSLRLSCAASGFTFSSYAMSWVRQAAGKGPEWVASISSRGITTDYAHSVKGRFTVSRDNTKNTLYLQMNSLKPEDTALYYCVKGWMPTGWGQGTQVTVSS
modifications: labeled with the acceptor fluorescent probe d2 (site not stated)
notes: as for B1
B6: VH E2 (VHH)
VHH: EVQLVESGGGLVQPGGSLRLSCIGSGYTFSSYAMAWVRQASGKGPEWVASISSRGITTDYAHSVKGRFTISRDNAKNTLYLHMNNLKPEDTALYYCTRVLWYENGLYSLNDFWGQGTQVTVSS
modifications: labeled with the acceptor fluorescent probe d2 (site not stated)
notes: as for B1
B7: HcAb-B11 (Fc fusion)
heavy (part 1 of 2): EVQLVESGGGLVQPGGSLRLSCAASGFTFNDYWMYWVRQAPGKGLEWVSSINTGGSSTYYSDSVKGRFTTARDNAKNSLYLQLNSLRPEDTAVYYCAKEGPVGPPDYWGQGTQVTVSSAAAEQKLISEEDLNGAAHHHHHHGS
heavy (part 2 of 2): HHHHHH
notes: also called VH-HcAb B11; 6HIS-Fc-sdAb; not shown: CH2 and CH3 domains of a human IgG1
B8: HcAb-F9 (Fc fusion)
heavy (part 1 of 2): EVQLVESGGGLVQPGGSLRLSCAASGFTFDDYAMNWVRQAAGKGPEWVASISSRGITTDYAHSVKGRFTVSRDNTKNTLYLQMNSLKPDDAAVYYCATDPSTWYRGTAHWGQGTQVTVSSAAAEQKLISEEDLNGAAHHHHHHGS
heavy (part 2 of 2): HHHHHH
notes: also called VH-HcAb F9; 6HIS-Fc-sdAb; not shown: CH2 and CH3 domains of a human IgG1
B9: HcAb-G7 (Fc fusion)
heavy (part 1 of 2): QVQLQESGGGLVQPGGSLRLSCAASGFTFSWYGMSWVRQAPGKGPEWVASISSRGITTDYAHSVKGRFTVSRDNTKNTLYLQMNSLKPEDTGVYYCTRVLWYDSGAYSLNDFWGQGTQVTVSSAAAEQKLISEEDLNGAAHHHHHHGS
heavy (part 2 of 2): HHHHHH
notes: VH-type heavy-chain antibody: VH fused to CH2 and CH3 of human IgG1, then a 6-histidine tag; made in HEK293; Detected in the assay through an anti-6HIS antibody labeled with d2; also called VH-HcAb G7; 6HIS-Fc-sdAb; not shown: CH2 and CH3 domains of a human IgG1
B10: VH B11 (VHH)
VHH: EVQLVESGGGLVQPGGSLRLSCAASGFTFNDYWMYWVRQAPGKGLEWVSSINTGGSSTYYSDSVKGRFTTARDNAKNSLYLQLNSLRPEDTAVYYCAKEGPVGPPDYWGQGTQVTVSS
modifications: labeled with the acceptor fluorescent probe d2 (site not stated)
notes: as for B1
B11: VH F4 (VHH)
VHH: EVQLVESGGGLVQPGGSLRLSCAASGFTFSSYYMNWVRQAPGKGLEWVSSIYNGDGDTDYSDSVKGRFTISRDNAKNTVYLEMSDLKVQDTAIYYCNAYDGTLLRDYWGQGTQVTVSS
modifications: labeled with the acceptor fluorescent probe d2 (site not stated)
notes: as for B1

Key:
[1] = target: T1, recombinant TST-Galphai1 protein bound to GTPgammaS (human, UniProt P63096 1-354, Loaded non-covalently with GTPgammaS (10 uM). The N-terminal TwinStreptag and TEV linker are not in the letters.); experiment: TR-FRET (HTRF) saturation binding; VH-d2 titrated on 1 nM TST-Galphai1 with 10 uM GTPgS, anti-TST-Lumi4-Tb donor; mean Kd
T1 construct: Same polypeptide as m15 and m16; here loaded with an excess of GTPgS (10 uM); Produced in Sf9 insect cells; also called Galphai1 protein loaded with GTPgS
T1 sequence (P63096 whole entry): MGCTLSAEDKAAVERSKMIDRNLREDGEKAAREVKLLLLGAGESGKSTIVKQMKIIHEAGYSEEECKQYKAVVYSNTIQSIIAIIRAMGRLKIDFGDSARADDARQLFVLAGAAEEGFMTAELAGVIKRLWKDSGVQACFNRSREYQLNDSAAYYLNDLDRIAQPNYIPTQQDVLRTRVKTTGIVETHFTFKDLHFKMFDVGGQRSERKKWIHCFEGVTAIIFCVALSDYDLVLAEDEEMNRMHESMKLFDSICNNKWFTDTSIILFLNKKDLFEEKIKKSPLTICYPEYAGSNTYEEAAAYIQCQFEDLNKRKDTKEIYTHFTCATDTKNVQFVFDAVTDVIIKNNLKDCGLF
Experimental: (§1) The TR-FRET (HTRF) test made it possible to determine the affinity (Kd) of the various antibodies for the Galphai1 protein; FIG. 2 illustrates the principle of this test. A fixed concentration (1 nM) of the recombinant Galphai1 protein purified and tagged with TST (TST-Galphai1 protein) was placed in the presence of an excess of nucleotide (GDP or GTPgS) (10 μM), of a fixed concentration (0.5 nM) of anti-TST antibody labeled with the donor Lumi4®-Tb (anti-TST antibody-Lumi4®-Tb) and of increasing concentrations of VH-type single-domain antibodies labeled with the acceptor d2 (anti-Galphai VH antibody-d2). The total HTRF signal was then obtained.
(§2) The specific HTRF signal of the interaction between the antibody and the Galphai1 protein was then calculated by subtracting the nonspecific signal from the total signal. The data of the specific HTRF signal were then analyzed on GraphPad Prism7 software using a “one site specific binding” fit. The dissociation constant (Kd) of the antibody for the Galphai1 protein was then determined. The results which were obtained with the antibodies which bind to the G protein alpha bound to GTP gamma S and with the antibodies which bind to the G protein alpha bound to GDP are shown in Tables 1 and 2 below.

[2] = target: T2, empty G alphai1 protein (recombinant TST-Galphai1 protein, no nucleotide) (human, UniProt P63096 1-354); experiment: TR-FRET (HTRF) saturation binding; VH-d2 titrated on TST-Galphai1, empty form; mean Kd
T2 construct: Same polypeptide as m14 and m15; also called empty G protein alpha; empty form of the G protein alpha; not shown: N-terminal TwinStreptag (TST) (IBA) tag and TEV linker
T2 sequence (P63096 whole entry): as above

[3] = target: T3, recombinant TST-Galphai1 protein bound to GDP (human, UniProt P63096 1-354, Loaded non-covalently with GDP (10 uM). The N-terminal TwinStreptag and TEV linker are not in the letters.); experiment: TR-FRET (HTRF) saturation binding; VH-d2 titrated on 1 nM TST-Galphai1 with 10 uM GDP, anti-TST-Lumi4-Tb donor; mean Kd
T3 construct: Same polypeptide as m14 and m16; here loaded with an excess of GDP (10 uM); Produced in Sf9 insect cells; also called Galphai1 protein loaded with GDP
T3 sequence (P63096 whole entry): as above
Experimental: as §1, §2

[4] = target: T1, recombinant TST-Galphai1 protein bound …; experiment: TR-FRET (HTRF) saturation binding; 6HIS-tagged VH-HcAb titrated on 1 nM TST-Galphai1 with 10 uM GTPgS, anti-TST-Lumi4-Tb donor and anti-6HIS-d2 acceptor; mean Kd
Experimental: (§3) FIG. 12 illustrates the principle of the TR-FRET (HTRF) assay which was carried out to determine the affinity (Kd) of the various VH-HcAbs for the Galphai1 protein. A fixed concentration (1 nM) of the recombinant Galphai1 protein purified and tagged with TST (TST-Galphai1 protein) is placed in the presence of an excess of nucleotide (GDP or GTPgS) (10 μM), of a fixed concentration (0.5 nM) of anti-TST antibody labeled with the donor Lumi4®-Tb (anti-Tag Ab-Donor), of a fixed concentration (50 nM) of anti-6HIS antibody labeled with the acceptor d2 (anti-6HIS-acceptor antibody, Cisbio Bioassays #61HISDLF), and of increasing concentrations of a VH-HcAb antibody tagged with 6HIS (6HIS-Fc-sdAb). The total HTRF signal was then obtained.
(§4) The specific HTRF signal of the interaction between the VH-HcAb and the Galphai1 protein was then calculated by subtracting the nonspecific signal from the total signal. The data of the specific HTRF signal were then analyzed on GraphPad Prism7 software using a “one site specific binding” fit. The dissociation constant (Kd) of the VH-HcAb for the Galphai1 protein was then determined.

[5] = target: T3, recombinant TST-Galphai1 protein bound …; experiment: TR-FRET (HTRF) saturation binding; 6HIS-tagged VH-HcAb titrated on 1 nM TST-Galphai1 with 10 uM GDP, anti-TST-Lumi4-Tb donor and anti-6HIS-d2 acceptor; mean Kd
Experimental: as §3, §4

[6] = target: T2, empty G alphai1 protein (recombinant …); experiment: TR-FRET (HTRF) saturation binding; VH-d2 titrated on TST-Galphai1, empty form; mean Kd; remark: listed apart in the source

| Binder | Kd [1] [nM] | Kd [2] [nM] | Kd [3] [nM] | other results |
| --- | --- | --- | --- | --- |
| B1 | 32 |  |  |  |
| B2 | 95 |  |  |  |
| B3 |  | 1 | 15 |  |
| B4 |  | 5 | 31 |  |
| B5 |  | 1 | 14 |  |
| B6 |  | 2 | 72 |  |
| B7 |  |  |  | Kd [4]: 1 nM |
| B8 |  |  |  | Kd [4]: 3 nM |
| B9 |  |  |  | Kd [5]: 5 nM |
| B10 | 1 |  |  | Kd [6]: 17 nM |
| B11 | 31 |  |  | Kd [6]: 83 nM |
